Test results published in article PMC2615213, “Serum Activity of Platelet-Activating Factor Acetylhydrolase Is a Potential Clinical Marker for Leptospirosis Pulmonary Hemorrhage” (PLoS ONE, 2009).

Tested on: CCCCCCCCCCCCCC(=O)OC[C@H](COP(=O)([O-])OCC[N+](C)(C)C)OC(=O)CCC(=O)Oc1ccc([N+](=O)[O-])cc1
Test: purified protein
Details: chromogenic substrate; mean of duplicate experiments

## rL-PAF-AH (recombinant His-tag-L-PAF-AH, LA2144) (Leptospira interrogans serovar Lai str. 56601)
  Km: 610 µM
  kcat: 6.61 s⁻¹
  kcat/Km: 10800 M⁻¹ s⁻¹
